Assay results as given in US20160159910A1 (Genentech, published 2016).
Positions count from the first letter of the chain named.

T1: mouse B7-H4 (mouse, UniProt Q7TSP5 29-283)
T1 construct: On stably transfected 293 cells; also called muB7-H4; recombinant mouse B7-H4
T1 sequence: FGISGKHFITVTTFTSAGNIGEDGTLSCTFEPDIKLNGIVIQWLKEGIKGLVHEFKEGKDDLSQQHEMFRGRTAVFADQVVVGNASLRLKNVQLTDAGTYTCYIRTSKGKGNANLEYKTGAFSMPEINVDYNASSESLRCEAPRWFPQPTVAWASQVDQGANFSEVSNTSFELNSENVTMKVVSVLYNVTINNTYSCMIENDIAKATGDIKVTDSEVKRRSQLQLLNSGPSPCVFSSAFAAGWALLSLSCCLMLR

T2: human B7-H4 (human, UniProt Q7Z7D3 29-282)
T2 construct: On stably transfected 293 cells (recombinant) or on MX-1 / SKBR3 tumor cells (endogenous); the cell is named under assay; also called huB7-H4; hB7-H4
T2 sequence: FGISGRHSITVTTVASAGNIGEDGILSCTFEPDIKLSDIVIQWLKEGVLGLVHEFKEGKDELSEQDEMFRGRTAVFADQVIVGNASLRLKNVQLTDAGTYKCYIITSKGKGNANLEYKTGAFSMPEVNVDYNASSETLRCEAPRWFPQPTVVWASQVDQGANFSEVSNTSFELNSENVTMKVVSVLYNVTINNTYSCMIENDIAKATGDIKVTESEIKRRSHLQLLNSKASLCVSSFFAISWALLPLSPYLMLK

T3: rat B7-H4 (rat, UniProt Q501W4 29-282)
T3 construct: On stably transfected 293 cells; also called recombinant rat B7-H4
T3 sequence: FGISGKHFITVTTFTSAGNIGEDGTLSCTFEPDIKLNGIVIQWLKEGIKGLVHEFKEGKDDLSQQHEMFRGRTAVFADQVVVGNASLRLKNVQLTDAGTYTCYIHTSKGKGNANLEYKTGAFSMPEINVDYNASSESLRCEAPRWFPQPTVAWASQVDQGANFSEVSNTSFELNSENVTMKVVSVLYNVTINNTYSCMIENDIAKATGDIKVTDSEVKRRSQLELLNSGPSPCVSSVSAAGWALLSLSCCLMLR

T4: cynomolgus monkey B7-H4 (cynomolgus monkey, UniProt Q7Z7D3 29-282 (human entry))
T4 construct: On stably transfected 293 cells; also called cyno B7-H4; recombinant cynomolgus monkey B7-H4
T4 chain: T2 sequence with L49I, F238L, S248A

T5: soluble B7-H4 (Ig-V; G28-V157)-Fc fusion protein (human, UniProt Q7Z7D3 28-157)
T5 construct: Engineered soluble protein; also called B7-H4-(Ig-V)-hIgG1 Fc fusion protein; soluble B7-H4 IgV-Fc fusion protein; not shown: human IgG1 Fc
T5 sequence: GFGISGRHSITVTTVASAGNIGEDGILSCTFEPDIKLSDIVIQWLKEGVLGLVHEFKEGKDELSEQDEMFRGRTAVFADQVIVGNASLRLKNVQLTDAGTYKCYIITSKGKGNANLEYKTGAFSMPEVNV

T6: human B7-H4 S114A glycosylation mutant (human, UniProt Q7Z7D3 29-282)
T6 construct: Full-length human B7-H4 membrane construct with S114 changed to alanine to prevent N-linked glycosylation at N112-S114; transiently expressed on 293 cells; also called mutated S114A human B7-H4; recombinant human B7-H4 S114A
T6 sequence: T2 sequence with S86A

T7: B7-H4 (IgV; G28-F150 including spacer S151-V157)-irrelevant (Ig-C) chimeric membrane protein (construct-88) (human, UniProt Q7Z7D3 28-157)
T7 construct: also called B7-H4 (Ig-V):MolX (Ig-C, TM, CD); Ig-chimera expressing the B7-H4 Ig-V domain; not shown: Ig-C, transmembrane and cytoplasmic parts of the unnamed irrelevant protein (MolX) that display the domain on the cell; N-terminal Herpes-gD tag
T7 sequence: T5 sequence

B1: chimeric antibody ch22C10 (antibody, human IgG1, V domains shown)
VH: QVQLQQPGAELVKPGTSVKLSCKASGYTFTNFWIHWVIQRPGQGLEWIGEIDPSDSYTNYNQKFKGKATLTVDKSSNTAYMQLSSLTSEDSAVYYCSREITTVDYWGQGTTLTVSS
VL: QIVLTQSPTIMSASPGEKVTLTCSATSSISYMHWYQQKPGTSPKGWIYDTSKLAHGVPARFSGSGSGTSYSLTISSMEAEDAATYYCHQRRSYPFTFGSGTKLEIK
notes: also called ch2210; parental 22C10 antibody
B2: chimeric antibody ch32D6 (antibody, human IgG1, V domains shown)
VH: EVQLQQSGPDLVKPGASVKISCKASGYSFTGYYIHWMKQSHGKSLEWIGRVNPNNGDPIYNQKFRGKAILTVDQSSNTAYMELRSLTSEASAVYYCARVLFYYGSPFAYWGQGTLVTVSA
VL: DIVMTQSPSSLIVTAGEKVTMSCRSSQSLFDSGSQRNYLTWFHQKPGRPPKLLIYWASTRESGVPDRFTGSGSGTDFTLTISSVQTEDLAVYFCQNDYSFPFTFGSGTKLEEK
notes: also called antibody 32D6
B3: hu1D11.v1.9 varD (antibody)
heavy: not shown
light: DIQMTQSPSSLSASVGDRVTITCKASQGFNKYVAWYQQKPGKAPKLLIYYTSTLQPGVPSRFSGSGSGRDYTLTISSLQPEDFATYYCLQYGDLLYAFGQGTKVEIKRTVAAPSVFIFPPSDEQLKSGTASVVCLLNNFYPREAKVQWKVDNALQSGNSQESVTEQDSKDSTYSLSSTLTLSKADYEKHKVYACEVTHQGLSSPVTKSFNRGEC
notes: IgG1 / kappa; also called h1D11v1.9_VarD; h1D11v1.9varD

Key:
[1] = target: T1, mouse B7-H4; test: FACS titration on 293 cells expressing recombinant mouse B7-H4 (panel '293-mouse B7-H4', upper block), geometric mean fluorescence
Procedure: (§1) The fluorescent signal was acquired with a BD FACS Calibur and EC₅₀ values were determined with the Graph Pad program Prism 4.

[2] = target: T2, human B7-H4; test: FACS titration on 293 cells expressing recombinant human B7-H4 (panel '293-human B7-H4', upper block), Dylight-650 goat anti-human IgG, geometric mean fluorescence
Procedure: as §1

[3] = target: T3, rat B7-H4; test: Scatchard analysis, 125I-antibody radioligand cell binding on stably transfected 293 cells
Procedure: (§2) Competition assay mixtures of 50 μL volume containing a fixed concentration of [I¹²⁵] labeled antibody and decreasing concentrations of serially diluted, unlabeled antibody were placed into 96-well plates. […] Cells were detached from the flask using Sigma Cell Dissociation Solution and were washed with binding buffer, which consisted of Dulbecco's Modified Eagle Medium (DMEM) with 1% bovine serum albumin (BSA), […] and 0.1% sodium azide. The washed cells were added to the 96 well plates at a density of 100,000 cells in 0.2 mL of binding buffer. The final concentration of the [I¹²⁵] labeled antibody in each well was ˜250 pM. The final concentration of the unlabeled antibody in the competition assay ranged from 1000 nM through ten 2-fold dilution steps to a 0 nM buffer-only assay. Competition assays were carried out in triplicate. Competition assays were incubated for 2 hours at room temperature. After the 2-hour incubation, the competition assays were transferred to a Millipore Multiscreen filter plate (Billerica, Mass.) and washed 4 times with binding buffer to separate the free from bound [I¹²⁵] labeled antibody. The filters were counted on a Wallac Wizard 1470 gamma counter (PerkinElmer Life and Analytical Sciences Inc.; Wellesley, Mass.). The binding data was evaluated using NewLigand software (Genentech), which uses the fitting algorithm of Munson and Robard to determine the binding affinity of the antibody (Munson and Robard 1980).

[4] = target: T2, human B7-H4; test: as above
Procedure: as §2

[5] = target: T1, mouse B7-H4; test: as above
Procedure: as §2

[6] = target: T4, cynomolgus monkey B7-H4; test: as above
Procedure: as §2

[7] = target: T4, cynomolgus monkey B7-H4; test: FACS titration on 293 cells expressing recombinant cynomolgus B7-H4 (panel '293-cyno B7-H4', upper block), geometric mean fluorescence
Procedure: as §1

[8] = target: T2, human B7-H4; test: FACS titration on MX-1 tumor cells, endogenous human B7-H4 (panel 'MX-1 tumor cell line', upper block), geometric mean fluorescence
Procedure: as §1

[9] = target: T5, soluble B7-H4 (Ig-V; G28-V157)-Fc …; test: FACS competition: soluble B7-H4 (Ig-V)-Fc against dye-labelled 22C10 on 293 cells expressing human B7-H4
[10] = target: T6, human B7-H4 S114A glycosylation mutant; test: FACS on 293 cells transfected with S114A human B7-H4 (glycosylation independence)
[11] = target: T2, human B7-H4; test: Scatchard analysis, 125I-antibody radioligand cell binding on MX-1 tumor cells
Procedure: as §2

[12] = target: T3, rat B7-H4; test: Scatchard on stable cell line expressing recombinant B7-H4 (footnote 1 of the table)
Procedure: Competition assay mixtures of 50 μL volume containing a fixed concentration of [I¹²⁵] labeled antibody and decreasing concentrations of serially diluted, unlabeled antibody were placed into 96-well plates. […] Cells were detached from the flask using Sigma Cell Dissociation Solution and were washed with binding buffer, which consisted of Dulbecco's Modified Eagle Medium (DMEM) with 1% bovine serum albumin (BSA), 300 mM human IgG and 0.1% sodium azide. The washed cells were added to the 96 well plates at a density of 100,000 cells in 0.2 mL of binding buffer. The final concentration of the [I¹²⁵] labeled antibody in each well was ˜250 pM. The final concentration of the unlabeled antibody in the competition assay ranged from 1000 nM through ten 2-fold dilution steps to a 0 nM buffer-only assay. Competition assays were carried out in triplicate. Competition assays were incubated for 2 hours at room temperature.

[13] = target: T2, human B7-H4; test: Scatchard analysis, radioligand cell binding on MX-1 cells (endogenous human B7-H4)
Procedure: as §2, with “After the 2-hour incubation, the competition assays were transferred to a Millipore Multiscreen filter plate (Billerica, Mass.) and washed 4 times with binding buffer to separate the free from bound [I¹²⁵] labeled antibody.” left out

[14] = target: T3, rat B7-H4; test: Scatchard analysis, radioligand cell binding on 293 cells expressing recombinant B7-H4
Procedure: as §2

[15] = target: T2, human B7-H4; test: as above
Procedure: as §2

[16] = target: T1, mouse B7-H4; test: as above
Procedure: as §2

[17] = target: T4, cynomolgus monkey B7-H4; test: as above
Procedure: as §2

[18] = target: T7, B7-H4 (IgV; G28-F150 including spacer …); test: FACS on 293 cells expressing the Ig-chimera with the B7-H4 Ig-V domain
Source text: Briefly, 293 cells were transiently transfected with constructs 88 & 88B using polyfect.

Binder	EC50 [1] [µg/mL]	EC50 [2] [µg/mL]	Kd [3] [nM]	Kd [4] [nM]	Kd [5] [nM]	Kd [6] [nM]	EC50 [7] [µg/mL]	EC50 [8] [µg/mL]	binding result [9]	fold binding over the isotype control [10] [fold]	Kd [11] [nM]	binding result [12]	Kd [13] [nM]	Kd [14] [nM]	Kd [15] [nM]	Kd [16] [nM]	Kd [17] [nM]	fold binding compared to mock transfected 293 cells [18] [fold]
B1	0.66	1.2	5.7	6.6	18.3	4.6	0.41	0.35	no binding	100	4.9	–	–	–	–	–	–	–
B2	–	–	–	4.8	–	3.1	–	–	–	100	–	no binding	–	–	–	–	–	–
B3	–	–	–	–	–	–	–	–	–	–	–	–	7.4	2.7	2.9	5	3.7	~44
